Experiments:
[1] = set-up: species or system mouse (human E3- and E4-targeted replacement mice); settings: in vivo
Experimental: Mice were anesthetized with an intraperitoneal injection of 0.1 mL 40% urethane to minimize pain and distress. […] We correct for the exact amount of radioactivity injected based on serum levels. […] Blood from the left carotid artery was collected between 0.5–10 min after intravenous injection. Mice were immediately decapitated and their whole brains quickly removed and weighed. The arterial blood was centrifuged at 5400g for 10 min at 4°C and serum collected. The brains were dissected into regions according to the method of [27] and weighed. The levels of radioactivity in serum (50 μL) and brain regions were counted in a gamma counter (Wizard2, Perkin Elmer, Waltham, MA). […] Expt was calculated from the formula: Exposuretime=∫0tCp(t)dt/Cp(t) (1) where Cp is the level of radioactivity (cpm) in serum at time (t). Expt corrects for the clearance of peptide from the blood. […] The influx of insulin was calculated by multiple-time regression analysis as described by Patlak, Blasberg, and Fenstermacher: Am/Cpt=Ki(∫0tCp(t)dt/Cp(t))+Vi (2) where Am is level of radioactivity (cpm) per g of brain tissue at time t, Cpt is the level of radioactivity (cpm) per mL arterial serum at time t, Ki (μL/g-min) is the unidirectional solute influx from blood to brain, and Vi (μL/g) is the level of rapid and reversible binding for the brain vasculature. […]

[2] = system: blood-brain barrier (BBB); settings: in vivo; cited from earlier work
Excerpt: Our studies are designed to investigate the transfer of human ^125I-insulin from the periphery to the CNS. Rat and human insulin are transported across the BBB at similar rates and are both saturable by excess respective peptide. […] We used the well-described multiple-time regression analysis technique first described by Patlak, Blasberg, and Fenstermacher. This an ...

[3] = system: blood-brain barrier (BBB); set-up: method as in PMID 30044494; settings: in vivo; cited from earlier work
[4] = system: blood-brain barrier (BBB); assay: BBB pharmacokinetic transport of 125I-insulin, multiple-time regression analysis (Ki, Vi); assay type: in vivo, mouse (human E3- and E4-targeted replacement mice); settings: for Insulin transport rate Ki / Reversible vascular binding (Vi): n = 7-10 mice/group; for Ki (unidirectional influx from blood to brain) / Vi (reversible vascular binding): whole brain; for Ki (unidirectional influx from blood to brain): multiple-time regression, ± SE
Experimental: Mice were anesthetized with an intraperitoneal injection of 0.1 mL 40% urethane to minimize pain and distress. […] We correct for the exact amount of radioactivity injected based on serum levels. […] Blood from the left carotid artery was collected between 0.5–10 min after intravenous injection. Mice were immediately decapitated and their whole brains quickly removed and weighed. The arterial blood was centrifuged at 5400g for 10 min at 4°C and serum collected. The brains were dissected into regions according to the method of [27] and weighed. The levels of radioactivity in serum (50 μL) and brain regions were counted in a gamma counter (Wizard2, Perkin Elmer, Waltham, MA). […] Expt was calculated from the formula: Exposuretime=∫0tCp(t)dt/Cp(t) (1) where Cp is the level of radioactivity (cpm) in serum at time (t). Expt corrects for the clearance of peptide from the blood. […] The influx of insulin was calculated by multiple-time regression analysis as described by Patlak, Blasberg, and Fenstermacher: Am/Cpt=Ki(∫0tCp(t)dt/Cp(t))+Vi (2) where Am is level of radioactivity (cpm) per g of brain tissue at time t, Cpt is the level of radioactivity (cpm) per mL arterial serum at time t, Ki (μL/g-min) is the unidirectional solute influx from blood to brain, and Vi (μL/g) is the level of rapid and reversible binding for the brain vasculature. The brain/serum (B/S) ratios for insulin were corrected for vascular space by subtracting the corresponding ratio for albumin, yielding a delta B/S ratio. The linear portion of the relation between the delta B/S ratio versus Expt was used to calculate the Ki (μL/g-min) with its standard error term, and the y-intercept determined as representation of the Vi (μL/g) for each brain region. For whole brain, the weights and cpm of all individual brain regions except for the olfactory bulb were summed to calculate the B/S ratio. […] All anesthetized mice were killed by decapitation at the end of the study.
Regression analysis and other statistical analyses were performed with the use of Prism 8.0 (GraphPad Software Inc., San Diego, CA, USA). Brain weight means are reported with their standard error terms and compared by two-way analysis of variance (ANOVA) followed by Sidak’s post hoc test to determine differences due to genotype or sex. […] For pharmacokinetic studies (multiple-time regression analysis), the slope of the linear regression lines (Ki), reported with their correlation coefficients (r), and y-intercepts (Vi) were compared statistically with the Prism 8.0 software package, as described.

In the case of “125I-insulin: Human insulin (Sigma-Aldrich) radioactively labeled with Na125I by the chloramine-T method”, the “Serum clearance rate, slower in males compared to females” value [1] is listed as > 2 fold, the “Whole brain transport rate, average previously observed” value [2] is listed as 0.71 ± 0.17 µL/g/min and the “Distribution between brain capillary and brain parenchyma” value [3] is listed as “enters the brain parenchyma”. The “Insulin transport rate Ki” value ([4]; E3 Female, Cerebellum) was 1.189 µL/g/min, the “Reversible vascular binding (Vi)” value ([4]; E3 Female, Cerebellum) was 8.36 µL/g and the “Insulin transport rate Ki” value ([4]; E3 Female, Frontal Cortex) was 0.796 µL/g/min. The “Reversible vascular binding (Vi)” value ([4]; E3 Female, Frontal Cortex) was 4.65 µL/g, the “Insulin transport rate Ki” value ([4]; E3 Female, Hippocampus, ns = non-significant transport) was “ns” and the “Insulin transport rate Ki” value ([4]; E3 Female, Hypothalamus) was 1.541 µL/g/min. For the same substance, the “Reversible vascular binding (Vi)” value ([4]; E3 Male, Parietal Cortex) was 4.17 µL/g, the “Insulin transport rate Ki” value ([4]; E3 Male, Pons/Medulla) was 0.739 µL/g/min and the “Insulin transport rate Ki” value ([4]; E3 Male, Striatum, ns = non-significant transport) was “ns”. For the same substance, the “Insulin transport rate Ki” value ([4]; E3 Male, Thalamus, ns = non-significant transport) was “ns”, the “Insulin transport rate Ki” value ([4]; E4 Female, Cerebellum) was 2.110 µL/g/min and the “Reversible vascular binding (Vi)” value ([4]; E4 Female, Cerebellum) was 8.91 µL/g. The “Insulin transport rate Ki” value ([4]; E4 Female, Frontal Cortex) was 0.720 µL/g/min, the “Reversible vascular binding (Vi)” value ([4]; E4 Female, Olfactory Bulb) was 11.71 µL/g and the “Insulin transport rate Ki” value ([4]; E4 Female, Parietal Cortex) was 0.859 µL/g/min. For the same substance, the “Reversible vascular binding (Vi)” value ([4]; E4 Female, Parietal Cortex) was 3.31 µL/g, the “Insulin transport rate Ki” value ([4]; E4 Female, Pons/Medulla) was 1.111 µL/g/min and the “Insulin transport rate Ki” value ([4]; E4 Female, Striatum, ns = non-significant transport) was “ns”. For the same substance, the “Insulin transport rate Ki” value ([4]; E4 Female, Thalamus) was 0.634 µL/g/min, the “Insulin transport rate Ki” value ([4]; E4 Male, Cerebellum, ns = non-significant transport) was “ns” and the “Insulin transport rate Ki” value ([4]; E4 Male, Frontal Cortex) was 1.023 µL/g/min. The “Reversible vascular binding (Vi)” value ([4]; E4 Male, Frontal Cortex) was 5.90 µL/g, the “Insulin transport rate Ki” value ([4]; E4 Male, Hippocampus, ns = non-significant transport) was “ns” and the “Insulin transport rate Ki” value ([4]; E4 Male, Hypothalamus) was 2.272 µL/g/min. The “Reversible vascular binding (Vi)” value ([4]; E4 Male, Hypothalamus) was 5.63 µL/g, the “Insulin transport rate Ki” value ([4]; E4 Male, Midbrain) was 0.887 µL/g/min and the “Reversible vascular binding (Vi)” value ([4]; E4 Male, Midbrain) was 6.38 µL/g. For the same substance, the “Insulin transport rate Ki” value ([4]; E4 Male, Occipital Cortex) was 0.793 µL/g/min, the “Reversible vascular binding (Vi)” value ([4]; E4 Male, Occipital Cortex) was 6.71 µL/g and the “Insulin transport rate Ki” value ([4]; E4 Male, Olfactory Bulb) was 1.712 µL/g/min. The “Reversible vascular binding (Vi)” value ([4]; E4 Male, Olfactory Bulb) was 13.31 µL/g, the “Insulin transport rate Ki” value ([4]; E4 Male, Parietal Cortex) was 0.920 µL/g/min and the “Reversible vascular binding (Vi)” value ([4]; E4 Male, Parietal Cortex) was 4.74 µL/g. For the same substance, the “Insulin transport rate Ki” value ([4]; E4 Male, Pons/Medulla, ns = non-significant transport) was “ns”, the “Insulin transport rate Ki” value ([4]; E4 Male, Striatum, ns = non-significant transport) was “ns” and the “Insulin transport rate Ki” value ([4]; E4 Male, Thalamus) was 1.203 µL/g/min. The “Reversible vascular binding (Vi)” value ([4]; E4 Male, Thalamus) was 4.56 µL/g, the “Ki (unidirectional influx from blood to brain)” value ([4]; Female E3, iv, albumin-corrected) was 1.128 ± 0.32 µL/g/min and the “Vi (reversible vascular binding)” value ([4]; Female E3, y-intercept of multiple-time regression) was 4.41 ± 2.31 µL/g. The “Ki (unidirectional influx from blood to brain)” value ([4]; Female E4) was 1.033 ± 0.28 µL/g/min, the “Vi (reversible vascular binding)” value ([4]; Female E4, y-intercept of multiple-time regression) was 7.17 ± 2.07 µL/g and the “Vi (reversible vascular binding)” value ([4]; Female, genotypes Combined) was 7.84 ± 1.26 µL/g. The “Ki (unidirectional influx from blood to brain)” value ([4]; Female, genotypes Combined) was 0.691 ± 0.16 µL/g/min, the “Vi (reversible vascular binding)” value ([4]; Male E3, y-intercept of multiple-time regression) was 7.17 ± 0.95 µL/g and the “Ki (unidirectional influx from blood to brain)” value ([4]; Male E4) was 0.781 ± 0.32 µL/g/min. The “Vi (reversible vascular binding)” value ([4]; Male E4, y-intercept of multiple-time regression) was 8.23 ± 2.13 µL/g, the “Vi (reversible vascular binding)” value ([4]; Male, genotypes Combined) was 7.88 ± 1.09 µL/g and the “Ki (unidirectional influx from blood to brain)” value ([4]; Male, genotypes Combined) was 0.803 ± 0.17 µL/g/min.
